For assay [1], the target named is synthetic peptide S155 of the RAGE V-domain (amino acids 39-65) (human). The assay can be described thus: SPR, antibody amine-coupled to a CM5 chip as ligand, peptide S155 (B-Rad) as analyte at 0.25-4 µM, 1:1 binding fit. Background: SPR reads the build-up and loss of mass on a sensor chip optically.
Assay [2] has as its target Human rRAGE, full-length RAGE recombinant protein from Merck (human) (UniProt Q15109). Nature of the assay: SPR, antibody amine-coupled to a CM5 chip as ligand, rRAGE protein as analyte at 0.0156-0.35 µM, 1:1 binding fit.
The target in assay [3] is T1, synthetic peptide S155 of the RAGE V-domain (amino acids 39-65) (human).
T1 construct: injected as analyte in SPR; also called RAGE synthetic peptide
T1 peptide: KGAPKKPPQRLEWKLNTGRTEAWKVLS
The assay can be described thus: SPR (Biacore T200), antibody amine-coupled to a CM5 chip as ligand, RAGE peptide S155 (BioRad) as analyte, multi-cycle kinetics, 1:1 fit; 'No steady state.'. The procedure: This was followed by diluting the ligand with the appropriate Acetate buffer to at least 10 μg/mL. The ligand immobilization on the surface Series S Sensor Chip CM5 (29-1496-03, Cytiva) was performed using the Amine Coupling Kit (BR100050, Cytiva) containing 1-Etyhyl-3-(3-dimethylaminopropyl)-carbodiimide hydrochloride (EDC), N-Hydroxysuccinimide (NHS) and 1.0M ethanolamine-HcL PH 8.5 in accordance with the manufacturer's instructions. For each experimental run, the ligand was immobilized in flow cells 2 or 4 while flow cells 1 or 3 were left unmodified. […] Following each binding cycle, the surface was regenerated with a 30 s injection of 10 mM Glycine-HcL, pH 2.5 regeneration solution (BR-1003-56), removing the bound antibody with a contact time of 30 s, flow rate of 30 μL/min and a stabilization period of Os. Blank cycles (buffer only injection followed by regeneration step) was also performed. Data was double referenced by first subtracting responses from the reference flow cell and then subtracting the blank cycles. Data was then fitted to a 1:1 binding model using Biacore™ T200 Evaluation Software 2.0 and Biacore™ Insight Evaluation Software.
SPR analysis was subsequently used to evaluate the binding kinetics of the different murine clones to their targets (either using synthetic peptide used to produce the clones or recombinant RAGE protein (Uniprot reference: Q15109-1) Peptide S155=Original peptide from Biorad used to produce the murine clones. Human rRAGE=Full-length RAGE recombinant protein from Merck). The SPR parameters used for this analysis are described in the detailed methods.

Assay [4] deals with T1, synthetic peptide S155 of the RAGE …. The assay can be described thus: ELISA, BSA-conjugated peptide S155 on the plate, two-fold dilutions of antibody, HRP anti-mouse, OD 450 nm. How it is done: FIG. 2: Screening of purified anti-RAGE antibodies by enzyme linked immunosorbent assay (ELISA). BSA-conjugated synthetic peptides of RAGE protein were immobilized onto microplates and incubated with two-fold serial dilutions of antibodies.
A 96-well plate was coated with 5 μg/ml of RAGE synthetic peptides or RAGE recombinant protein diluted in phosphate-buffered saline (pH 7.4) overnight at 4° C. The solution was removed, washed with PBS-Tween (PBST) and the plate was blocked with ELISA ultrablock buffer (Biorad) for 1 h at room temperature. After blocking, the plate was washed with PBST and a range of concentrations of α-RAGE antibodies was applied to the plate for 2 h at room temperature. The plate was washed thoroughly with PBST and incubated with HRP-conjugated anti-mouse antibodies diluted 1:1000 in PBS-Tween. After washes with PBST, TMB Core+ substrate solution (Biorad) was added to each well and incubated at room temperature for 30 minutes. 0.2M H2SO4 was used as a stop solution. Absorbance at 450 nm was measured in a Biorad absorbance microplate reader.
The initial screening of the 6 murine antibody clones against RAGE was undertaken by ELISA. For this evaluation a range of 15 concentrations of each antibody clone was applied to the plate.
On the technique in general: ELISA stands for enzyme-linked immunosorbent assay.

The target in assay [5] is synthetic peptide S155 of the RAGE V-domain (amino acids 39-65) (human). The assay can be described thus: SPR (Biacore T200), antibody amine-coupled to a CM5 chip as ligand, RAGE peptide S155 (BioRad) as analyte, multi-cycle kinetics, 1:1 fit; 'No steady state.'.
Assay [6] has as its target T1, synthetic peptide S155 of the RAGE …. Nature of the assay: SPR (Biacore T200), antibody amine-coupled to a CM5 chip as ligand, RAGE Peptide (S155) as analyte, multi-cycle kinetics, 1:1 fit; 'No steady state.'. The procedure:
Data were then fitted to a 1:1 binding model.
For on-rate and off-rate screening, Biacore™ T200 system (Cytiva, Uppsala, Sweden) was used to perform SPR analysis with 1×HBS-EP+ buffer (0.01M Hepes, 0.15M NaCl, 0.003M ethylenediaminetetraacetic acid, and 0.05% Surfactant P20, pH 7.4) (BR100669) used as sample and running buffer. The analysis temperature at the sensor chip surface and within the compartment was set to 25° C. Firstly, pH scouting with 10 mM sodium acetate buffer 4.0 (BR-1003-49), 10 mM sodium acetate buffer 4.5 (BR-1003-50), 10 mM sodium acetate buffer 5.0 (BR-1003-51) and 10 mM sodium acetate buffer 5.5 (BR-1003-52) was performed to identify the optimal pH required for ligand (α-RAGE antibodies) immobilization. This was followed by diluting the ligand with the appropriate Acetate buffer to at least 10 μg/mL. The ligand immobilization on the surface Series S Sensor Chip CM5 (29-1496-03, Cytiva) was performed using the Amine Coupling Kit (BR100050, Cytiva) containing 1-Etyhyl-3-(3-dimethylaminopropyl)-carbodiimide hydrochloride (EDC), N-Hydroxysuccinimide (NHS) and 1.0M ethanolamine-HcL PH 8.5 in accordance with the manufacturer's instructions. For each experimental run, the ligand was immobilized in flow cells 2 or 4 while flow cells 1 or 3 were left unmodified.

The target in a further assay is RAGE (Homo sapiens, UniProt Q15109). The assay can be described thus: Binding target blocking assay by immunofluorescence on HEC-1A cells. The format is cell-based. Set-up: endogenous in cells; host or cells: HEC-1A (ECACC). Particulars: then antibody at 4 μg/ml. The procedure:
To proof that HA9 shares similar binding epitope as other α-RAGE antibodies, an immunofluorescence approach was used. For this purpose, 1.5×10^4 HEC1A cells/well (obtained from the European Collection of Authenticated Cell Cultures, ECACC, Public Health England, UK) were seeded in 8-well chamber slides (Ibidi) in 300 μl of stripped medium and cultured for 24 h in a humidified, 5% CO2 in air atmosphere incubator at 37° C. After culture, cells were fixed with 4% paraformaldehyde (Sigma) for 20 minutes, permeabilized with 0.1% Triton X-100 (Sigma) for 10 minutes at 4° C. and blocked with 3% BSA in PBS for 1 h. Cells were then pre-incubated with a primary antibody against RAGE at a concentration in excess (20 μg/ml in 3% BSA in PBS for 1 h) to block the specific epitope they bind, before cells were incubated with the α-RAGE antibody of interest at 4 μg/ml in 3% BSA-PBS overnight at 4° C. This was followed by 1 h incubation with Alexa-fluorophore-conjugated secondary antibodies. Cells were washed with PBS extensively between all steps, counterstained before imaging with Hoechst (Life Technologies™) and imaged using a LSM710 confocal fluorescence microscopy system (Zeiss, UK). The mean intensity of fluorescence was obtained using imageJ by measuring the integrated density per imaged field, normalised by the number of cells in the respective field and obtaining the mean from >10 fields obtained per condition. A decrease in fluorescence in the pre-blocked condition compared with the not-pre-blocked condition means both antibodies share similar epitope of binding on the same protein.

Chain of Human rRAGE, full-length RAGE recombinant protein from Merck (human) (Q15109 23-404 limits assumed): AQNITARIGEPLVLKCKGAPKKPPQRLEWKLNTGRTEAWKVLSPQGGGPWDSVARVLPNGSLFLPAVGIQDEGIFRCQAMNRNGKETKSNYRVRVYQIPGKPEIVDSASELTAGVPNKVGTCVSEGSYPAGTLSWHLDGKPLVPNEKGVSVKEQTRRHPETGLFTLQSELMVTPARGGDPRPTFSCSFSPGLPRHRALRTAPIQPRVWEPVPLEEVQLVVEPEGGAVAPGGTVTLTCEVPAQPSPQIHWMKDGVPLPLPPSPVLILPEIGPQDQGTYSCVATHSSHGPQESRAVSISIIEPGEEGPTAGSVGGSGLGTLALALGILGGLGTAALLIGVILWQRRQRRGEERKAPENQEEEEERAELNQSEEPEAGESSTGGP
Chain of RAGE (Q15109 23-404): as the sequence (Q15109 23-404 limits assumed) above

The term Kd denotes the free concentration of one partner at which half of the binding sites on the other are occupied at equilibrium, for simple one-to-one binding. Broadly, the koff is the rate constant with which the complex falls apart. What is called kon is the rate constant with which the complex forms. As for “α-RAGE Abcam (Abcam, ab37647) (antibody)”, in assay [1], the Kd is 54.1 nM, the dissociation rate constant (koff) stood at 4.46 s⁻¹ and the kon came out at 8.2e+07 M⁻¹ s⁻¹. In assay [2], the dissociation constant (Kd) was 4.31 nM, the off-rate (koff) is 0.00077 s⁻¹ and the association rate constant (kon) is 180000 M⁻¹ s⁻¹.

B1: murine HA9 (mHA9) anti-RAGE monoclonal antibody (antibody, V domains shown)
VH: EVKLVETGGGLVQPGRPMKLSCVASGFTLSDHWMNWVRQSPEKGLEWVAQIRNRPYKFEKYYSDSVKGRFTISRDDSKNSVYLQMNNLRAEDMGIYYCSSYRYGLAYWGQGTLVTVST
VL: DNLLTQSPAILSVSPGERVSFSCRASQTIDTRIHWYQQRKNGSPRLLIRYISESLSGIPSRFSGSGSGTEFTLTINSVESEDIADYYCQQTESWPITFGSGTKLEIK
notes: Murine hybridoma antibody, purified on protein G; also called HA9 clone
Usually EC50 (read off the curve) stands for the concentration needed to bring the measured effect to its halfway point. The low end stands for higher potency in that assay, the high end for lower potency in that assay. Turning to B1, in assay [3], the dissociation constant (Kd) came to 720 nM and the koff is 0.0033 s⁻¹. For the same molecule, in assay [4], the concentration giving a half-maximal response (EC50 (read off the curve)) was approximately 0.01 µg/mL.

B2: murine BC3 anti-RAGE monoclonal antibody (antibody, part only; not given: Light chain variable region, V domains shown, part only)
VH: QVQLKQSGPGLVQPSQSLSITCTVSGFSLTNYGVHWVRQSPGKGLEWLGVIWTGGNTDYNAAFISRLSITKDNSKSQVFFKMNSLQANDTAIYYCARNLRGGYYGAWFAYWGQGTLVTVSA
In the case of B2, in assay [5], the Kd was found to be 890 nM, the dissociation rate constant (koff) is 0.00333 s⁻¹ and the kon worked out at 3720 M⁻¹ s⁻¹.

B3: Anti-CG7 (Chimeric) (antibody, V domains shown)
VH: QVQLKQSGPGLVQPSQSLSITCTVSGFSLTNYGVHWVRQSPGKGLEWLGVIWTGGNTDYNAAFISRLSITKDNSKSQVFFKMNSLQANDTAIYYCARNLRGGYYGAWFAYWGQGTLVTVSA
VL: DVVMTQTPLSLPVSLGDQASISCRSSQTLVHSNGNTYLHWYLQKPGQSPKLLIYKVSNRFSGVPDRFTGSGSGTDFTLKISRVEAEDLGVYFCSQSTHVPPLTFGAGTKLELK
notes: also called hCG7; chimeric CG7
In assay [6], B3 registered a Kd of 320 nM and a koff of 0.0095 s⁻¹.

B4: CG7: anti-RAGE antibody clone raised against RAGE peptide aa 39-65 (antibody, V domains shown)
VH: QVQLKQSGPGLVQPSQSLSITCTVSGFSLTNYGVHWVRQSPGKGLEWLGVIWTGGNTDYNAAFISRLSITKDNSKSQVFFKMNSLQANDTAIYYCARNLRGGYYGAWFAYWGQGTLVTVSA
VL: DVVMTQTPLSLPVSLGDQASISCRSSQTLVHSNGNTYLHWYLQKPGQSPKLLIYKVSNRFSGVPDRFTGSGSGTDFTLKISRVEAEDLGVYFCSQSTHVPPLTFGAGTKLELK
For the molecule B4, the “staining after Abcam antibody pre-blocking” value with RAGE (Abcam antibody 20 μg/ml pre-incubation) is recorded as “did not result in a decrease”. Further, in the assay with RAGE (N16 20 μg/ml pre-incubation), the “staining after N16 pre-blocking” value is on record as “unaffected”.

B5: murine CG7 (mCG7) anti-RAGE monoclonal antibody (antibody, V domains shown)
VH: QVQLKQSGPGLVQPSQSLSITCTVSGFSLTNYGVHWVRQSPGKGLEWLGVIWTGGNTDYNAAFISRLSITKDNSKSQVFFKMNSLQANDTAIYYCARNLRGGYYGAWFAYWGQGTLVTVSA
VL: DVVMTQTPLSLPVSLGDQASISCRSSQTLVHSNGNTYLHWYLQKPGQSPKLLIYKVSNRFSGVPDRFTGSGSGTDFTLKISRVEAEDLGVYFCSQSTHVPPLTFGAGTKLELK
notes: Murine hybridoma antibody
In assay [3], B5 registered a Kd of 296 nM, an off-rate (koff) of 0.00901 s⁻¹ and a kon of 30000 M⁻¹ s⁻¹.

B6: murine BG7 anti-RAGE monoclonal antibody (antibody, V domains shown)
VH: EVKLDETGGGLVQPGRPMKLSCIASGFTLSDYWMNWVRQSPEKGLEWVAQIRNRPYNFETLYSDSVKGRFIISRDDSKNSVYLQMDNLGPDDSGIYYCSSYRYGLAYWGQGTLVTVSA
VL: DILLTQSPAILSVSPGERVSISCRASQTIDKRIHWYQQRTNGSPRLLIKYMSESISGTPSRFSGSGSGTDFTLTINSVESEDIAVYYCQQTNYWPITFGSGTKLELK
notes: Murine hybridoma antibody
In assay [3], B6 showed a Kd of 410 nM, a dissociation rate constant (koff) of 0.02 s⁻¹ and an association rate constant (kon) of 49000 M⁻¹ s⁻¹. In addition, the “EC50 (read off the curve)” value in assay [4] is approximately 0.02 µg/mL.

B7: Anti-BG7 (Chimeric) (antibody, V domains shown)
VH: EVKLDETGGGLVQPGRPMKLSCIASGFTLSDYWMNWVRQSPEKGLEWVAQIRNRPYNFETLYSDSVKGRFIISRDDSKNSVYLQMDNLGPDDSGIYYCSSYRYGLAYWGQGTLVTVSA
VL: DILLTQSPAILSVSPGERVSISCRASQTIDKRIHWYQQRTNGSPRLLIKYMSESISGTPSRFSGSGSGTDFTLTINSVESEDIAVYYCQQTNYWPITFGSGTKLELK
notes: also called hBG7; chimeric BG7
With B7, in assay [6], the affinity, expressed as Kd, was 607 nM and the koff was 0.0028 s⁻¹.

B8: murine IG7 anti-RAGE monoclonal antibody (antibody, V domains shown)
VH: EVKLDETGGGLVQPGRPMKLSCIASGFTLSDYWMNWVRQSPEKGLEWVAQIRNRPYNFETLYSDSVKGRFIISRDDSKNSVYLQMDNLGPDDSGIYYCSSYRYGLAYWGQGTLVTVSA
VL: DILLTQSPAILSVSPGERVSISCRASQTIDKRIHWYQQRTNGSPRLLIKYMSESISGTPSRFSGSGSGTDFTLTINSVESEDIAVYYCQQTNYWPITFGSGTKLELK
notes: Same VH and VL as BG7; also called ID7
In assay [3], B8 returned a Kd of 860 nM, a koff of 0.00326 s⁻¹ and a kon of 3790 M⁻¹ s⁻¹. Moreover, the “EC50 (read off the curve)” value in assay [4] is approximately 0.02 µg/mL.

For the origin of these results see US20250163149A1, “ANTI-RAGE ANTIBODY” (Swansea University, priority 2022, published 2025).
